Values of other authors as cited in article PMC11054419.

Columns and labels:
TGF-β2 (Homo sapiens) = TGF-β2 (Homo sapiens) (UniProt P61812)
TGF-β3 (Homo sapiens) = TGF-β3 (Homo sapiens) (UniProt P10600)
TGF-β1 (Homo sapiens) = TGF-β1 (Homo sapiens) (UniProt P01137)

Measured: Kd

Chain of TβRIII (betaglycan) (Q03167 21-787): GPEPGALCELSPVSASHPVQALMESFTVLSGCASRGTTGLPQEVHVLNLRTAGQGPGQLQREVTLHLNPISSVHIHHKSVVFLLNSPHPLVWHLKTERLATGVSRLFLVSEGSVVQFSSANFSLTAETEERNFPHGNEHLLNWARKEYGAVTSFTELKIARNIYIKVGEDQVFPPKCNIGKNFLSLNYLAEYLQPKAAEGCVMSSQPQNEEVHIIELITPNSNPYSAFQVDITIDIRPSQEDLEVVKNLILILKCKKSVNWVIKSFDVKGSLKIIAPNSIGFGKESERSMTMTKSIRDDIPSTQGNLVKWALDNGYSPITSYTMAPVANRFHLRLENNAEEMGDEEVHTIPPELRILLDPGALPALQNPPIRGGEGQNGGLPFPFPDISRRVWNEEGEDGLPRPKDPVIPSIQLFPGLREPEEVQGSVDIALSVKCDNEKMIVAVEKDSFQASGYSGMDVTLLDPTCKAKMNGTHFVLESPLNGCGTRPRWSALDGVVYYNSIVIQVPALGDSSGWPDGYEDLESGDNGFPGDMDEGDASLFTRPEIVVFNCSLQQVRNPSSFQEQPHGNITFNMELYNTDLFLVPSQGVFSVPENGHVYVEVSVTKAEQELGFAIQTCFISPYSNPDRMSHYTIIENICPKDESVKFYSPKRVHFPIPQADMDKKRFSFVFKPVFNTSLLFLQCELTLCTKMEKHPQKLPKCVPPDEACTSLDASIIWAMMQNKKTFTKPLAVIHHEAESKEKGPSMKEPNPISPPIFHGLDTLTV
Chain of TGF-β2 (Homo sapiens) (P61812 303-414): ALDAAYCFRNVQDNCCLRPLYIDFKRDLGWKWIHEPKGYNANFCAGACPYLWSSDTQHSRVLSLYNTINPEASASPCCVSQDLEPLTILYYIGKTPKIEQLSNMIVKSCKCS
Chain of TGF-β3 (Homo sapiens) (P10600 301-412): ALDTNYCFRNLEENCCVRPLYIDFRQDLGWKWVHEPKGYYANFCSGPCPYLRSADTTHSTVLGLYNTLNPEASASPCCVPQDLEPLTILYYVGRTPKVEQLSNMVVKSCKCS
Chain of TGF-β1 (Homo sapiens) (P01137 279-390): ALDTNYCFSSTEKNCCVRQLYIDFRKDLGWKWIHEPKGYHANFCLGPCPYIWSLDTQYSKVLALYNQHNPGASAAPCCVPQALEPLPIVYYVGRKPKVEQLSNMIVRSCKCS

TβRIII (betaglycan) (from UniProt Q03167)
0.1 nM: TGF-β2 (Homo sapiens) | TGF-β3 (Homo sapiens) | TGF-β1 (Homo sapiens)
